Results from US20200018762.
Substitutions are numbered along the chain they refer to. Numbers in names are those of the source.

T1: biotinylated H4-derived unphosphorylated peptide TVTAMDVVYALKRQGRT
T1 chain: TVTAMDVVYALKRQGRT

B1: purified constitutively active E346K-Ack1 (HA-tagged) (protein)
chain: MQPEEGTGWLLELLSEVQLQQYFLRLRDDLNVTRLSHFEYVKNEDLEKIGMGRPGQRRLWEAVKRRKALCKRKSWMSKVFSGKRLEAEFPPHHSQSTFRKTSPAPGGPAGEGPLQSLTCLIGEKDLRLLEKLGDGSFGVVRRGEWDAPSGKTVSVAVKCLKPDVLSQPEAMDDFIREVNAMHSLDHRNLIRLYGVVLTPPMKMVTELAPLGSLLDRLRKHQGHFLLGTLSRYAVQVAEGMGYLESKRFIHRDLAARNLLLATRDLVKIGDFGLMRALPQNDDHYVMQEHRKVPFAWCAPESLKTRTFSHASDTWMFGVTLWEMFTYGQEPWIGLNGSQILHKIDKKGERLPRPEDCPQDIYNVMVQCWAHKPEDRPTFVALRDFLLEAQPTDMRALQDFEEPDKLHIQMNDVITVIEGRAENYWWRGQNTRTLCVGPFPRNVVTSVAGLSAQDISQPLQNSFIHTGHGDSDPRHCWGFPDRIDELYLGNPMDPPDLLSVELSTSRPPQHLGGVKKPTYDPVSEDQDPLSSDFKRLGLRKPGLPRGLWLAKPSARVPGTKASRGSGAEVTLIDFGEEPVVPALRPCAPSLAQLAMDACSLLDETPPQSPTRALPRPLHPTPVVDWDARPLPPPPAYDDVAQDEDDFEICSINSTLVGAGVPAGPSQGQTNYAFVPEQARPPPPLEDNLFLPPQGGGKPPSSAQTAEIFQALQQECMRQLQAPAGSPAPSPSPGGDDKPQVPPRVPIPPRPTRPHVQLSPAPPGEEETSQWPGPASPPRVPPREPLSPQGSRTPSPLVPPGSSPLPPRLSSSPGKTMPTTQSFASDPKYATPQVIQAPGPRAGPCILPIVRDGKKVSSTHYYLLPERPSYLERYQRFLREAQSPEEPTPLPVPLLLPPPSTPAPAAPTATVRPMPQAALDPKANFSTNNSNPGARPPPPRATARLPQRGCPGDGPEAGRPADKIQMAMVHGVTTEECQAALQCHGWSVQRAAQYLKVEQLFGLGLRPRGECHKVLEMFDWNLEQAGCHLLGSWGPAHHKR
B2: purified Ack1 (Examples 2 and 5) (protein)
chain: B1 chain with K346E

What was measured:
[1] = molecular target: purified H4 protein (Example 3), P62805
[2] = molecular target: purified histone H3 (Example 2), P68431
[3] = molecular target: T1, biotinylated H4-derived …

| Protein | in vitro kinase assay, immunoblot with pTyr51-H4 antibody [1] | in vitro kinase reaction, immunoblot with pTyr99-H3 antibody [2] | in vitro kinase assay on immobilized peptide, ELISA with pY88-H4 antibodies [3] |
| --- | --- | --- | --- |
| B1 | When purified E346K-Ack1 and H4 were incubated, H4 was Tyr51-phosphorylated, however, Ack1 inhibitor AIM-100 abrogated H4 pTyr51-phosphorylation (FIG. 26B) |  |  |
| B2 |  | Ack1 directly phosphorylates histone H3 at Tyr99 (FIG. 23) | Incubation of H4 peptide with WEE1 and Ack1 protein resulted in robust H4 Tyr88-phosphorylation |
